Data on ten molecules can be found in US20190300590A1 (PROTAGONIST THERAPEUTICS, published 2019).

Bridges are numbered along the chain shown (N, C = ends). Where no end group is shown, it is not given here. [ ]: non-standard residue; d: D form. 2Nal = N[C@@H](Cc1ccc2ccccc2c1)C(=O)O; AEF = NCCOc1ccc(C[C@H](N)C(=O)O)cc1; AllylGly = C=CC[C@H](N)C(=O)O; Pen = CC(C)(S)[C@H](N)C(=O)O; Thp = NC1(C(=O)O)CCOCC1; Abu = CC[C@H](N)C(=O)O; AEA = NCCOCC(=O)O Some results are limits rather than exact numbers.

The target in experiment [1] is Rat IL-23R_huFC (rat). Kind of experiment: rat ELISA vs IL-23.
The target in experiment [2] is Rat IL-23R_huFC (rat). Nature of the experiment: rat ELISA vs IL-23. The source holds these as a separate data set.
A further experiment deals with T1, IL-23R on DB cells (human, UniProt Q5VWK5 24-629).
T1 sequence (looked up): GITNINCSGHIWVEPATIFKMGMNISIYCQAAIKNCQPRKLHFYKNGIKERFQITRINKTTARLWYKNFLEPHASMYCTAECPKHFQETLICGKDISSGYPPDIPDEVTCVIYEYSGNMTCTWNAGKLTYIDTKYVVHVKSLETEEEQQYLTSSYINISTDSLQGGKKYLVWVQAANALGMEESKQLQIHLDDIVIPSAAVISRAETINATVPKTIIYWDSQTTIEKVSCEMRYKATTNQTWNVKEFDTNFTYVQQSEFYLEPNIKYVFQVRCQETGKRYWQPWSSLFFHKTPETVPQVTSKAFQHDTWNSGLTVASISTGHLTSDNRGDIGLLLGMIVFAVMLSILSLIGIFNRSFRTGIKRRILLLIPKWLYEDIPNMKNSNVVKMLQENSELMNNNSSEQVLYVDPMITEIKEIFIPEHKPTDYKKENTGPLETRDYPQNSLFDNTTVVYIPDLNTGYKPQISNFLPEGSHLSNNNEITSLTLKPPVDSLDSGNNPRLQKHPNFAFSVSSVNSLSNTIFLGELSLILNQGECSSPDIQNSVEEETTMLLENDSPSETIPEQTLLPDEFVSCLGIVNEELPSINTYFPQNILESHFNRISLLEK
Kind of experiment: cell-based or functional assay.

For experiment [3], the target named is T2, IL23R_huFC (human, UniProt Q5VWK5 24-353).
T2 sequence (looked up): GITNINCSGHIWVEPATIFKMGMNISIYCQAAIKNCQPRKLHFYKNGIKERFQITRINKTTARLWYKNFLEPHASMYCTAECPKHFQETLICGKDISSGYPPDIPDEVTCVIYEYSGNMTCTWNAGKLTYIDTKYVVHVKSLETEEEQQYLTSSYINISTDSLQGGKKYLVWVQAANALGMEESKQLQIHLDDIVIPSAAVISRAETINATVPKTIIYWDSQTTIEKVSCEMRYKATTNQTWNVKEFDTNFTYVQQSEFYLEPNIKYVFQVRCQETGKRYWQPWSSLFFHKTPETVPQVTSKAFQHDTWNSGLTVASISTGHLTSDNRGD
Nature of the experiment: IL23-IL23R competitive binding ELISA. (In general: An ELISA detects its analyte on a solid surface through an enzyme-linked reagent.)

In experiment [4] the target is T3, IL23R_huFC (human, UniProt Q5VWK5 24-353).
T3 sequence (looked up): T2 sequence (looked up)
Nature of the experiment: human ELISA vs IL-23.

The target of experiment [5] is T3, IL23R_huFC. Kind of experiment: human ELISA vs IL-23. This is another data set of the same source.
Experiment [6] concerns the target T3, IL23R_huFC. Nature of the experiment: human ELISA vs IL-23. The source holds these as a separate data set.
Experiment [7] has as its target Rat IL-23R_huFC (rat). Nature of the experiment: IL-23/IL-23R competitive binding ELISA, rat.
The target of a further experiment is T4, Cyno IL-23R_huFC (cyno, UniProt G7NWY5 24-353).
T4 sequence: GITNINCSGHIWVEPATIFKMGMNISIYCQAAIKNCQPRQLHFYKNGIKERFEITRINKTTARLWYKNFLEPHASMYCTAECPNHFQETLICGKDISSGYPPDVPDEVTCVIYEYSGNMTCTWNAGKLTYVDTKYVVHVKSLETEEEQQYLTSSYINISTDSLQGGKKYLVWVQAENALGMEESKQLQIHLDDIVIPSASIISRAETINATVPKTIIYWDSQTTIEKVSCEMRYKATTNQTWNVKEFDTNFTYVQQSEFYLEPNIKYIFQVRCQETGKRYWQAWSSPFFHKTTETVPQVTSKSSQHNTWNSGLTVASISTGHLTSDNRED
Kind of experiment: IL-23/IL-23R competitive binding ELISA, cyno.

Experiment [8] concerns the target T3, IL23R_huFC. Kind of experiment: human ELISA vs IL-23. This is another data set of the same source.

One may read the IC50 as the midpoint of a concentration-inhibition curve. In the case of XADWVCYWHTFGXK (as bracketed in name; cyclized via Cys and Pen) [Ac-[(D)Pen]-ADWVCYWHTFG-[AEA]-[(D)-Lys]-NH2], the IC50 with Rat IL-23R_huFC [1] was 1 to 10 µM.

In the experiment with Rat IL-23R_huFC [2], Ac-[Pen]RTWQCYWRKFG[AEA][dK]-NH2 (disulfide 1-6 (inferred)) [Ac-[Pen]-RTWQCYWRKFG-[AEA]-[(D)-Lys]-NH2] registered an IC50 of 0.1 to 1 µM.

B1: [Ac-[Pen]-QTWQ-[Pen]-[Phe[4-(2-aminoethoxy)]-[2-Nal]-[α-Me-Leu]-QNN-NH2]2DIG (peptide)
peptide: XQTWQXFXLQNN
modifications: Ac; Pen-Pen disulfide; Phe[4-(2-aminoethoxy)]; 2-Nal; α-Me-Leu; NH2; DIG linker joins the two subunits
For B1, in the experiment with IL-23R on DB cells, the “pStat3 HTRF IC50” value was in the range of 10 to 25 nM. The IC50 with IL23R_huFC [3] lay within 0.01 to 0.025 µM.

B2: [Ac-[Pen]-QTWQ-[Pen]-[Phe[4-(2-aminoethoxy)]-[2-Nal]-[α-Me-Leu]-QNN-NH2]2PEG25 (peptide)
peptide: XQTWQXFXLQNN
modifications: Ac; Pen-Pen disulfide; Phe[4-(2-aminoethoxy)]; 2-Nal; α-Me-Leu; NH2; PEG25 linker joins the two subunits
Regarding B2, the “pStat3 HTRF IC50” value with IL-23R on DB cells was 10 to 25 nM. Further, the concentration for half-maximal inhibition (IC50) with IL23R_huFC [3] is below 0.01 µM.

B3: [Ac-Cyclo-[[Abu]-QTWQC]-[Phe]4-(2-aminoethoxy)]]-[2-Nal]-[Aib]-QNG-NH2]2DIG (peptide)
peptide: XQTWQCFXXQNG
modifications: not fully specified; as bracketed in name; thioether cyclo; DIG linker through Phe[4-(2-aminoethoxy)]
Turning to B3, in the experiment with IL23R_huFC [4], the half-maximal inhibitory concentration (IC50) lay within 0.025 to 0.1 µM.

In the experiment with Rat IL-23R_huFC [1], CADWVXYWHTFGXK (as bracketed in name; cyclized via Cys and Pen) [Ac-CADWV-[(D)Pen]-YWHTFG-[AEA]-[(D)-Lys]-NH2] showed an IC50 of 1 to 10 µM.

CQTWQXYWLENG (as bracketed in name; cyclized via Cys and Pen) [Ac-CQTWQ-[Pen]-YW-[α-MeLeu]-ENG-NH2]: the IC50 with Rat IL-23R_huFC [2] and with IL23R_huFC [5] was 0.1 to 1 µM each time.

B4: Ac-CQTWQ-[Pen]-YW-[(D)Asn]-ENG-NH2 (peptide)
peptide: Ac-CQTWQ[Pen]YW[dN]ENG-NH2
modifications: disulfide 1-6
SMILES: CC(=O)N[C@H]1CSSC(C)(C)[C@@H](C(=O)N[C@@H](Cc2ccc(O)cc2)C(=O)N[C@@H](Cc2c[nH]c3ccccc23)C(=O)N[C@H](CC(N)=O)C(=O)N[C@@H](CCC(=O)O)C(=O)N[C@@H](CC(N)=O)C(=O)NCC(N)=O)NC(=O)[C@H](CCC(N)=O)NC(=O)[C@H](Cc2c[nH]c3ccccc23)NC(=O)[C@H]([C@@H](C)O)NC(=O)[C@H](CCC(N)=O)NC1=O
B4 came in with an IC50 in the experiment with IL23R_huFC [6] of 1 to 10 µM.

Turning to Ac-[Abu]QTWQC[AEF][2Nal][Thp]ENN-NH2 (thioether 1-6) [Peptide 980], the IC50 with Rat IL-23R_huFC [7] turned out to be 0.003 µM; with Cyno IL-23R_huFC it was 0.0013 µM.

In the case of [AllylGly]ADWV[AllylGly]YWHTFG (staple 1-6 (inferred)) [SEQ ID NO. 1000 peptide (drawing CHEM-US-00114)], the IC50 in the experiment with IL23R_huFC [8] was around 20 µM.
